Experiments:
[1] = molecular target: ^C38/C81/C96M1 (variant lacking the hydrophobic mutations) (UniProt P0ABE7)
[2] = molecular target: ^C38/C81/C96R1 (triple Cys mutant of the cytochrome cb562 variant RIDC1)
[3] = molecular target: ^C38/C81/C96R1 (triple Cys mutant of the cytochrome cb562 variant RIDC1); assay: AUC

yield of the tetrameric species [1] [%] | yield of the tetrameric species [2] [%] | yield of the tetrameric species with 1.5-fold molar excess of Zn2+ [2] [%] | stoichiometry N [3] | Substance
16 | – | – | – | ^C38/C81/C96M1 (variant lacking the hydrophobic mutations) (from UniProt P0ABE7 23-128)
– | 47 | 53 | 4 | ^C38/C81/C96R1 (triple Cys mutant of the cytochrome cb562 variant RIDC1)

From paper PMC5085265
